From PMC7912224

How the values were obtained:
[1] = molecular target: HBc protein (core protein) of hepatitis B virus genotype D (hepatitis B virus genotype D); experiment: SEC; VLPs incubated in GuHCl- and LiCl-containing dissociation buffer, +4 °C, 16 h; debris removed; supernatant on a Superose6 or Superdex200 column in dissociation buffer; capsid to dimers, the dimer stays
[2] = molecular target: HBc protein (core protein) of hepatitis B virus genotype D (hepatitis B virus genotype D); experiment: reassociation by dialysis, tested by electron microscopy, DLS, SDS-PAGE and NAGE; purified HBc dimers dialysed from dissociation buffer against PBS at +4 °C overnight; dimers to VLPs (empty capsids)
[3] = molecular target: HBc protein (core protein) of hepatitis B virus genotype F (hepatitis B virus genotype F); experiment: SEC; VLPs incubated in GuHCl- and LiCl-containing dissociation buffer, +4 °C, 16 h; debris removed; supernatant on a Superose6 or Superdex200 column in dissociation buffer; capsid to dimers, the dimer stays
[4] = molecular target: HBc protein (core protein) of hepatitis B virus genotype F (hepatitis B virus genotype F); experiment: reassociation by dialysis, tested by electron microscopy, DLS, SDS-PAGE and NAGE; purified HBc dimers dialysed from dissociation buffer against PBS at +4 °C overnight; dimers to VLPs (empty capsids)
[5] = molecular target: HBc protein (core protein) of hepatitis B virus genotype G (hepatitis B virus genotype G); experiment: SEC; VLPs incubated in GuHCl- and LiCl-containing dissociation buffer, +4 °C, 16 h; debris removed; supernatant on a Superose6 or Superdex200 column in dissociation buffer; capsid to dimers, the dimer stays
[6] = molecular target: HBc protein (core protein) of hepatitis B virus genotype G (hepatitis B virus genotype G); experiment: reassociation by dialysis, tested by electron microscopy, DLS, SDS-PAGE and NAGE; purified HBc dimers dialysed from dissociation buffer against PBS at +4 °C overnight; dimers to VLPs (empty capsids)

With “HBc protein (core protein) of hepatitis B virus genotype D (natural protein)” the Dimer content [1] was 30%, the percent of the treated soluble VLPs as dimers [1] was 70% and the stoichiometry N [1] was 2. The Reassociated dimers (percent of dimers reassociated in VLPs) [2] was 80%.

With “HBc protein (core protein) of hepatitis B virus genotype F (natural protein)” the Dimer content [3] was 30%, the percent of the treated soluble VLPs as dimers [3] was 40% and the stoichiometry N [3] was 2. The Reassociated dimers (percent of dimers reassociated in VLPs) [4] was 80%.

Substance “HBc protein (core protein) of hepatitis B virus genotype G (natural protein)” has a Dimer content [5] of 30%, a percent of the treated soluble VLPs as dimers [5] of 80% and a stoichiometry N [5] of 2. It also gave a Reassociated dimers (percent of dimers reassociated in VLPs) [6] of 90%.
